Data on three molecules can be found in US11242370B2, “Neuregulin-4 compounds and methods of use” (Eli Lilly and Company, priority 2019, dated 2022).

Test [1] has as its target T1, HER4 receptor extracellular domain (ECD) (Homo sapiens, UniProt Q15303).
T1 construct: C-terminal His-tagged HER4 receptor extracellular domain (ECD) construct
T1 sequence (Q15303 26-651 limits assumed): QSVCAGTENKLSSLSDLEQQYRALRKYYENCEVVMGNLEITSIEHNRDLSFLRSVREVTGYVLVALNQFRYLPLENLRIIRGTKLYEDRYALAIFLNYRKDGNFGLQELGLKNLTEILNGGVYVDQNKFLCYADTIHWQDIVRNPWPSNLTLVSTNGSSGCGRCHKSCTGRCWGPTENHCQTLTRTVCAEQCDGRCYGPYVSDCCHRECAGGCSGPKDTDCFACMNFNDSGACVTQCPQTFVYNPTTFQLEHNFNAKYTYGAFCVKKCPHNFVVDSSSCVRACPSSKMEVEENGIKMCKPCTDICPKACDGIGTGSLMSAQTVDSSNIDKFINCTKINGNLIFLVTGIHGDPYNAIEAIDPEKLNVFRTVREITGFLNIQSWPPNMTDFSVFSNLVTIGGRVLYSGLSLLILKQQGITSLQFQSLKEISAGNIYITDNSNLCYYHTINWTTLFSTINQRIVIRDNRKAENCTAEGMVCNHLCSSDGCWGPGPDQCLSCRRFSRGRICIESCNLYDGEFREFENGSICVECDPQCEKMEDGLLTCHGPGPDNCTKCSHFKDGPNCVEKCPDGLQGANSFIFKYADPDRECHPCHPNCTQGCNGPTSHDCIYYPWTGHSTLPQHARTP
In words: HER4/NRG-Fc binding assay (ELISA) for screening NRG4 variants. As to the method: A binding assay is utilized to perform high-throughput screening of NRG4 variant Fc fusion proteins to HER4 receptor, to identify affinity-driven variants with the potential to increase receptor activation and signaling. ELISA plates are coated with an anti-His tag antibody at 2 μg/ml in PBS to facilitate the standardized capture of a C-terminal His-tagged HER4 receptor extracellular domain (ECD) construct after blocking the plate with 1% BSA/PBS/0.1% Tween 20 (HER4 ECD at 5 μg/ml). Saturating amounts of unpurified NRG4-Fc variants in expression media (Starting at 10 μg/ml with serial dilutions in 1% BSA/PBS/0.1% Tween 20) are incubated with the captured receptor for 1 hour. After washing, bound variant NRG4-Fc is detected colorimetrically with an anti-human Fc-specific alkaline phosphatase secondary detection reagent to quantitate binding. Incubation times of variant binding to receptor or durations of the subsequent wash steps are varied to further identify binding variants driven by affinity on-rate and off-rate, respectively.

For another test, the target named is T2, rat HER2/HER3 (Rattus norvegicus, UniProt Q62799).
T2 construct: expressed in transfected cells
In words: Rat HER2/HER3 phospho-ERK 1/2 assay, purified proteins, CHO-K1 cells. Format: cell-based. The settings on record: phospho-ERK1/2. As to the method: A cell based assay utilizing CHO-K1 cells overexpressing human or rat HER receptors is used to determine activity of NRG4 compounds. CHO-K1 cells (ATCC) are grown in DMEM-F12 3:1 with 5% FBS with 20 mM HEPES, 40 μg/mL L-Proline, lx antibiotics and were split 1:5 every 2-3 days with TripLE Express (Gibco). Cells are transfected with plasmid DNA encoding HER receptors in pairs (hHER2-3, hHER2-4, rHER2-3 and rHER2-4) with Fugene 6 (Promega) according to the manufacturer's instructions. […] Transfected cells are selected with Puromycin (12 ug/ml) and Hygromycin (1 mg/ml) for 3-4 weeks and clonal lines are obtained by limited dilution cloning into 96 well plates. Clonal lines are selected by appropriate gene expression of HER2, HER3 or HER4 by Taqman method. Lines with appropriate receptor expression are confirmed by NRG1 induced phospho-ERK 1/2 responses. Clones are grown up, harvested, aliquoted into cryovials and then frozen under liquid nitrogen for long-term storage.
A phospho-ERK1/2 activity assay is utilized with CHO-K1 cells overexpressing human or rat HER receptors to determine potencies and selectivity of purified NRG4 compounds. CHO-K1 cell lines expressing the human or rat HER receptors are cultured with selection medium (DMEM-F12 3:1 with 5% FBS with 20 mM HEPES, 40 μg/mL L-Proline, 1× antibiotics, 12 μg/mL puromycin, 1 mg/mL Hygromycin B). On Day −1 (the day before phospho-ERK1/2 assay), cells are washed once with PBS, detached with enzyme free cell dissociation solution (GIBCO cat #13151-014), and resuspended in plating medium (DMEM-F12 3:1 with 20 mM HEPES, lx antibiotics, 0.2% FBS). Cells are plated in a 96-well Poly-D-Lysine coated plate (BD cat #354640) at 10,000 cells per 0.1 mL per well. […] Then 7.5 μL donor beads are added and the plate is covered with aluminum foil and incubated at room temperature for 2 hours on plate shaker with 350 rpm agitation or at 4° C. for overnight (warm up plate at room temperature for 2 h before reading). Alpha signal data are obtained on an Envision instrument (Alpha Technology-compatible plate reader). […]

Setting [2] is: Dose # 1: Example 1 10.65, WT NRG1 10, WT NRG4 17 μg/mL.
Where [3] appears, read: Dose # 2: Example 1 5.325, WT NRG1 5, WT NRG4 8.5 μg/mL.
Setting [4] is: Dose # 3: Example 1 2.6625, WT NRG1 2.5, WT NRG4 4.25 μg/mL.
[5] abbreviates: Dose # 4: Example 1 1.33125, WT NRG1 1.25, WT NRG4 2.125 μg/mL.
[6] abbreviates: Dose # 5: Example 1 0.665625, WT NRG1 0.625, WT NRG4 1.0625 μg/mL.
Setting [7] is: Dose # 6: Example 1 0.332813, WT NRG1 0.3125, WT NRG4 0.53125 μg/mL.
Where [8] appears, read: Dose # 7: Example 1 0.166406, WT NRG1 0.15625, WT NRG4 0.265625 μg/mL.
Setting [9] is: Dose # 8: Example 1 0.083203, WT NRG1 0.078125, WT NRG4 0.132813 μg/mL.
Where [10] appears, read: Dose # 9: Example 1 0.041602, WT NRG1 0.039063, WT NRG4 0.066406 μg/mL.
The mark [11] stands for this setting: Dose # 10: Example 1 0.020801, WT NRG1 0.019531, WT NRG4 0.033203 μg/mL.
The mark [12] stands for this setting: Dose # 11: Example 1 0.0104, WT NRG1 0.009766, WT NRG4 0.016602 μg/mL.
Where [13] appears, read: Dose # 12: Example 1 0.0052, WT NRG1 0.004883, WT NRG4 0.008301 μg/mL.

Positions count from the first letter of the chain named. Numbers in names are those of the source. Some results are limits rather than exact numbers.

T2 sequence (Q62799 20-1339): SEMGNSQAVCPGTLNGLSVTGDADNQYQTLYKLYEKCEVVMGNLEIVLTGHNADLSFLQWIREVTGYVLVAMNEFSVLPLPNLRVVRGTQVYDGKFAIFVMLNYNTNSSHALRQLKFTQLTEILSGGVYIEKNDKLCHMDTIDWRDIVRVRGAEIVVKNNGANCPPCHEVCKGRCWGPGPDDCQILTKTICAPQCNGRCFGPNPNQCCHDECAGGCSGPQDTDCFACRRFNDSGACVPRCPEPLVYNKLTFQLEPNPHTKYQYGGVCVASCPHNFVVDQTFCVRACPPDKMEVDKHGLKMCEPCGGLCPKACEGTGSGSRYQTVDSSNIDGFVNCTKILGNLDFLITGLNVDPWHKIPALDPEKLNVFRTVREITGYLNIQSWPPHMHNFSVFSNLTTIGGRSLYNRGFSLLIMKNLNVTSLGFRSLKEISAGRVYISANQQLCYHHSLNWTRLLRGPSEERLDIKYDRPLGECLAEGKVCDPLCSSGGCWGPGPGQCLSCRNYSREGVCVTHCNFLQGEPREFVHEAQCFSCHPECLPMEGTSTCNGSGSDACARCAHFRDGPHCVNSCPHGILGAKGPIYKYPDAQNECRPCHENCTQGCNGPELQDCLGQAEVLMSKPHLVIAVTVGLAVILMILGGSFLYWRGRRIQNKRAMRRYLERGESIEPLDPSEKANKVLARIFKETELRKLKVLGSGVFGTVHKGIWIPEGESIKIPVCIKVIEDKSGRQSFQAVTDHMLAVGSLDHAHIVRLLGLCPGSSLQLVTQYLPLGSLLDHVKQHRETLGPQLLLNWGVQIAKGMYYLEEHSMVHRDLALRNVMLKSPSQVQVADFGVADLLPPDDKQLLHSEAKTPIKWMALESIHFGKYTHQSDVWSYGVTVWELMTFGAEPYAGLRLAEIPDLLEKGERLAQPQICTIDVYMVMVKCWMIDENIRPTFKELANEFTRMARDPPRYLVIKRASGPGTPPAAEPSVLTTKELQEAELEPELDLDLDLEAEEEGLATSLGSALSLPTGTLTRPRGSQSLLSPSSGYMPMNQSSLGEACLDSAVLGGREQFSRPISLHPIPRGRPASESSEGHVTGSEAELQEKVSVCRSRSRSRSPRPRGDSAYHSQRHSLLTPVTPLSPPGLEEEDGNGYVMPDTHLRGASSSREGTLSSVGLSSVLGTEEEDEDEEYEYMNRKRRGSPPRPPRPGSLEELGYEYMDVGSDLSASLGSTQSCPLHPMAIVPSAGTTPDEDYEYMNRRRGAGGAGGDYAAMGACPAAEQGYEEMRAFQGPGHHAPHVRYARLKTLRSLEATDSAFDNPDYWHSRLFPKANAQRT
T2 sequence (P06494 23-1257 partner): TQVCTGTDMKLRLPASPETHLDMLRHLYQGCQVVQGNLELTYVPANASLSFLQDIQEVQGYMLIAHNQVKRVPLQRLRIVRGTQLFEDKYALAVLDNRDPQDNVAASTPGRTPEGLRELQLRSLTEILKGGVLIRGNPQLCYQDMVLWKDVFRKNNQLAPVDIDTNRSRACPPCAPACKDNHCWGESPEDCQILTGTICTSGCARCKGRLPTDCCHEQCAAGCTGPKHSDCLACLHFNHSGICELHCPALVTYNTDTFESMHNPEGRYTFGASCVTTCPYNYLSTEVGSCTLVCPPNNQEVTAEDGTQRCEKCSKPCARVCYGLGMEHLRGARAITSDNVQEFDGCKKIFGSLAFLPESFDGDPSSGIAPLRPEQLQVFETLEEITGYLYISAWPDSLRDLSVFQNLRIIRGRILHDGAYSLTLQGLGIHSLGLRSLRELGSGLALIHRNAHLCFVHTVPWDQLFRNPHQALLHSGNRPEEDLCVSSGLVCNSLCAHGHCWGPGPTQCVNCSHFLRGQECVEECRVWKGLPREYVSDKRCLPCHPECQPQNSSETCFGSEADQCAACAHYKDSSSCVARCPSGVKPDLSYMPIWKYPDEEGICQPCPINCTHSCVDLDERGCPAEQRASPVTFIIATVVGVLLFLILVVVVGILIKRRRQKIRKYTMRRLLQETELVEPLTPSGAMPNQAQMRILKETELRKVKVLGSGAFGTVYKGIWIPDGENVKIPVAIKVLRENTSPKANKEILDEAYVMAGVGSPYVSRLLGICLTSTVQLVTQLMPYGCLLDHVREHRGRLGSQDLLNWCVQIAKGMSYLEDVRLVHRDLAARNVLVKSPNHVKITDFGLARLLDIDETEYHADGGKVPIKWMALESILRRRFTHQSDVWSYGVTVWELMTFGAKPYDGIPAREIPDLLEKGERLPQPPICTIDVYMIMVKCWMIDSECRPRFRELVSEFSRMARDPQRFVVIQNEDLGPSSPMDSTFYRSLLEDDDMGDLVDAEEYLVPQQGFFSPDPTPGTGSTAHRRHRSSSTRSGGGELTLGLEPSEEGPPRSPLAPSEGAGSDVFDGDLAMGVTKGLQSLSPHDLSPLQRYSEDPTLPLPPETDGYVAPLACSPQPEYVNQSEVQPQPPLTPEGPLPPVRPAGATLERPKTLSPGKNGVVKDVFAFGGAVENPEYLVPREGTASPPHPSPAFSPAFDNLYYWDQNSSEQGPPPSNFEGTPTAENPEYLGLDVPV

In the case of “WT NRG1: wild type human NRG1; native peptide purchased from Reprokine in Tables 7-9; comparator in the screening assays of Tables 4 and 6”, the “O.D. 405, binding to HER4 extracellular domain” value (from here on “O.D. 405, binding”) in test [1] (setting [2]) is on record as 1.501; in test [1] (setting [3]), 1.439; in test [1] (setting [4]), 1.399; in test [1] (setting [5]) it was 1.31; in test [1] (setting [6]), 1.27; in test [1] (setting [7]), 1.022. The “O.D. 405, binding” value in test [1] (setting [8]) was 0.8; in test [1] (setting [9]), 0.514; in test [1] (setting [10]) it was 0.316; in test [1] (setting [11]), 0.179; in test [1] (setting [12]), 0.114; in test [1] (setting [13]), 0.084. Further, the EC50 with rat HER2/HER3 worked out at 0.032 ± 0.014 µM.

Regarding “WT NRG4: wild type human NRG4 (SEQ ID NO:1); parental hFcNRG4 in screening (Tables 4-6), native peptide from Reprokine in Tables 7-9 (DHEEPCGPSHKSFCLNGGLCYVIPTIPSPFCRCVENYTGARCEEVFL; listed as Homo sapiens)”, the “O.D. 405, binding” value was 0.651 in test [1] (setting [2]); 0.597 in test [1] (setting [3]); 0.485 in test [1] (setting [4]); 0.347 in test [1] (setting [5]); 0.224 in test [1] (setting [6]); 0.154 in test [1] (setting [7]). Besides, the “O.D. 405, binding” value was 0.111 in test [1] (setting [8]); 0.088 in test [1] (setting [9]); 0.071 in test [1] (setting [10]); 0.07 in test [1] (setting [11]); 0.066 in test [1] (setting [12]); 0.066 in test [1] (setting [13]).

B1: Example 10: NRG4 D1G/V22Q/E44K, (GGGGS)3 linker, SEQ ID NO: 19, fused to IgG Fc dimer SEQ ID NO: 6 and 7 (protein)
chain 1: GGGGSGGGGSGGGGSGHEEPCGPSHKSFCLNGGLCYQIPTIPSPFCRCVENYTGARCEKVFL
chain 2: ECPPCPAPPVAGPSVFLFPPKPKDTLMISRTPEVTCVVVDVSHEDPEVQFNWYVDGVEVHNAKTKPREEQFNSTFRVVSVLTVVHQDWLNGKEYKCKVSNKGLPAPIEKTISKTKGQPREPQVYTLPPSREEMTKNQVSLWCLVKGFYPSDIAVEWESNGQPENNYKTTPPVLDSDGSFFLYSKLTVDKSRWQQGNVFSCSVMHEALHNHYTQKSLSLSPG
chain 3: B1 chain 2 with W141S, L143A, Y182V
In the test with rat HER2/HER3, B1 displayed an EC50 of over 0.1 µM.
